From the RNAGym collection of RNA variant scans (doi:10.7554/elife.80360)

B1: CPEB3 Ribozyme (parent)
chain: GGGGGCCACAGCAGAAGCGUUCACGUCGCGGCCCCUGUCAGAUUCUGGUGAAUCUGCGAAUUCUGCUGU

Variants of: B1
Experiment: self-cleavage, relative activity (ratio to wild type); higher = more cleavage; co-transcriptional

Compared with A10C C45G, C9U G65A is lower in self-cleavage: 1.05 for the first, 0.965 for the second.

Going from C9G G28A to C9G G28C, the self-cleavage falls from 0.264 to 0.149.

Compared with C9U G56U, C9U A16U is lower in self-cleavage: 0.971 for the first, 0.864 for the second.

First: C9U A16G
Second: C9U C33G
The self-cleavage of the first is lower: 0.956 for the first, 0.974 for the second.

Compared with A10C G41A, C9U C39U is higher in self-cleavage: 0.824 for the first, 0.935 for the second.

Compared with C9G C63G, C9G U44G is higher in self-cleavage: 0.799 for the first, 0.96 for the second.

First: C9G A52C
Second: C9G A52U
The self-cleavage of the first is lower: 0.985 for the first, 1.04 for the second.

First: C9G U69C
Second: C9G U55A
The self-cleavage of the first is higher: 1.07 for the first, 0.929 for the second.

First: C9U U53C
Second: C9G G58A
The self-cleavage of the first is lower: 0.931 for the first, 1.01 for the second.

First: C9G C18U
Second: A10C C33U
The self-cleavage of the first is lower: 0.935 for the first, 0.98 for the second.

First: C9U U69C
Second: A10C C66G
The self-cleavage of the first is higher: 1.07 for the first, 0.892 for the second.

Going from A10C C66A to A10C C66U, the self-cleavage rises from 0.862 to 0.974.

Going from C9U G48C to C9G G17A, the self-cleavage falls from 1.02 to 0.66.

First: C9G G17U
Second: A10C G11C
The self-cleavage of the first is lower: 0.68 for the first, 0.764 for the second.

Going from C9G A23C to C9G U53A, the self-cleavage falls from 0.993 to 0.98.

First: C9G U61G
Second: C9G C22A
The self-cleavage of the first is higher: 0.958 for the first, 0.189 for the second.

First: C9G C34U
Second: C9G C34A
The self-cleavage of the first is higher: 1.01 for the first, 0.953 for the second.

First: C9U C34U
Second: C9G G37C
The self-cleavage of the first is higher: 1.01 for the first, 0.289 for the second.

Going from C9G G37A to C9G A16C, the self-cleavage rises from 0.371 to 0.548.

Going from A10C G14C to C9G G56C, the self-cleavage rises from 0.252 to 0.924.

Compared with C9G G56U, C9G G56A is higher in self-cleavage: 0.97 for the first, 1.01 for the second.

Going from C9U G50A to A10C A40G, the self-cleavage falls from 1.02 to 0.976.

Compared with C9U A59C, C9U A59U is higher in self-cleavage: 0.877 for the first, 0.888 for the second.

First: C9G C66A
Second: C9U G14C
The self-cleavage of the first is higher: 0.831 for the first, 0.747 for the second.

Compared with C9U G14U, C9G A13U is lower in self-cleavage: 0.898 for the first, 0.837 for the second.

Compared with C9G U64G, C9U is higher in self-cleavage: 0.936 for the first, 1.01 for the second.

Going from C9U C27G to C9G G30C, the self-cleavage rises from 0.203 to 0.948.

Going from C9G G30A to C9G G30U, the self-cleavage falls from 0.975 to 0.759.

Going from C9U C66G to C9G A51C, the self-cleavage falls from 0.921 to 0.674.

First: A10C C24G
Second: A10C G17U
The self-cleavage of the first is higher: 0.478 for the first, 0.464 for the second.

First: C9G G31A
Second: A10C C63G
The self-cleavage of the first is higher: 0.936 for the first, 0.629 for the second.

First: C9G U38C
Second: C9G U49A
The self-cleavage of the first is lower: 0.997 for the first, 1 for the second.

First: C9G U49C
Second: C9G U49G
The self-cleavage of the first is higher: 1.01 for the first, 0.954 for the second.

Going from C9U C29U to C9G A60G, the self-cleavage rises from 0.874 to 0.952.

Going from A10C A59C to A10C A59G, the self-cleavage rises from 0.832 to 1.

Compared with C9G G47U, C9G G47A is higher in self-cleavage: 1.04 for the first, 1.05 for the second.

Compared with C9G G11C, C9G G11U is higher in self-cleavage: 0.721 for the first, 0.922 for the second.

Going from A10C C22A to C9G C45A, the self-cleavage rises from 0.161 to 1.01.

Compared with C9G C45U, C9U A51U is higher in self-cleavage: 0.998 for the first, 1 for the second.

Going from C9U C45G to C9G A59C, the self-cleavage falls from 1.07 to 0.896.

Compared with C9U C32U, C9U G37U is lower in self-cleavage: 1.02 for the first, 0.432 for the second.

Compared with C9U G37C, C9G G41A is higher in self-cleavage: 0.224 for the first, 0.872 for the second.

Compared with C9U U26G, C9U U26A is lower in self-cleavage: 0.942 for the first, 0.929 for the second.

Compared with A10C G31C, C9G C57U is higher in self-cleavage: 0.233 for the first, 0.356 for the second.

Going from A10C C18A to A10C C18U, the self-cleavage rises from 0.12 to 0.882.

First: C9U G41U
Second: C9U G41C
The self-cleavage of the first is higher: 0.974 for the first, 0.949 for the second.

First: C9G U46C
Second: C9G U46G
The self-cleavage of the first is lower: 0.937 for the first, 1 for the second.

Compared with C9G G48U, C9U U43G is lower in self-cleavage: 1.01 for the first, 0.967 for the second.

First: C9U A60U
Second: C9U U36A
The self-cleavage of the first is higher: 0.538 for the first, 0.312 for the second.

Compared with C9U U36C, A10C G37A is lower in self-cleavage: 1.02 for the first, 0.242 for the second.

First: C9U G25A
Second: A10C C39U
The self-cleavage of the first is lower: 0.306 for the first, 0.877 for the second.

First: C9G C54G
Second: C9G C27G
The self-cleavage of the first is higher: 0.926 for the first, 0.246 for the second.

Compared with C9G C27A, C9U G17U is higher in self-cleavage: 0.754 for the first, 0.832 for the second.

Compared with C9U G17C, A10C C29U is lower in self-cleavage: 0.32 for the first, 0.221 for the second.

First: C9G A15U
Second: C9G A15G
The self-cleavage of the first is lower: 0.911 for the first, 0.988 for the second.

Compared with C9G C24G, C9U G11U is higher in self-cleavage: 0.608 for the first, 0.945 for the second.

Going from C9G U20C to C9U G68C, the self-cleavage rises from 0.254 to 1.03.

Going from A10C G19C to A10C G19U, the self-cleavage rises from 0.097 to 0.446.

Going from C9U A40C to C9G U67A, the self-cleavage rises from 0.841 to 0.959.

First: C9G G14A
Second: A10C C34G
The self-cleavage of the first is lower: 0.783 for the first, 0.868 for the second.

Going from A10C G25U to C9U A52G, the self-cleavage rises from 0.0666 to 0.673.

Going from A10C C54A to A10C C54G, the self-cleavage rises from 0.896 to 0.993.

First: A10C C54U
Second: C9U U62A
The self-cleavage of the first is higher: 1.02 for the first, 0.997 for the second.

Compared with C9U U62C, C9U A15U is lower in self-cleavage: 0.966 for the first, 0.931 for the second.

Going from C9U A15G to C9G G19U, the self-cleavage falls from 1.05 to 0.643.

Compared with C9G G19C, C9G C35A is higher in self-cleavage: 0.133 for the first, 0.267 for the second.

First: A10C C32G
Second: A10C A52C
The self-cleavage of the first is lower: 0.418 for the first, 0.986 for the second.

Going from A10C A52U to C9U U21G, the self-cleavage falls from 0.985 to 0.801.

Going from C9U U21A to C9U G58A, the self-cleavage rises from 0.932 to 1.03.

Compared with C9U G58U, A10C C27G is lower in self-cleavage: 1.02 for the first, 0.0915 for the second.

Compared with C9G G50U, C9G G50A is lower in self-cleavage: 1.02 for the first, 1.01 for the second.

Compared with C9U C12A, C9U C12U is higher in self-cleavage: 0.785 for the first, 1.01 for the second.

First: C9U C12G
Second: C9U G30C
The self-cleavage of the first is lower: 0.976 for the first, 0.981 for the second.

Going from C9U G30A to C9G C33A, the self-cleavage rises from 0.972 to 1.03.

First: C9U U61C
Second: C9U G28U
The self-cleavage of the first is higher: 0.866 for the first, 0.169 for the second.

Compared with A10C A42C, A10C A42G is lower in self-cleavage: 0.961 for the first, 0.896 for the second.

First: C9U U44G
Second: C9U C54U
The self-cleavage of the first is higher: 1.06 for the first, 0.988 for the second.

Compared with A10C G28C, C9U C57G is higher in self-cleavage: 0.102 for the first, 0.334 for the second.

Compared with C9U G19C, C9U G47C is higher in self-cleavage: 0.143 for the first, 1.06 for the second.

Compared with C9U G47U, C9U A13G is higher in self-cleavage: 1.02 for the first, 1.04 for the second.

Compared with C9U U20G, C9G U36A is higher in self-cleavage: 0.17 for the first, 0.256 for the second.

Going from A10C A23G to C9G A40U, the self-cleavage falls from 0.94 to 0.827.

First: C9G A40C
Second: C9U C22G
The self-cleavage of the first is higher: 0.715 for the first, 0.21 for the second.

With C9U C22A the self-cleavage was 0.226.
